Experimental data taken from the DeepSol protein solubility set.

Test: soluble on expression in E. coli; label from the status in PepcDB or PDB records

Sequence: MREEKGMDQKVYDAYLSILKAELVPALGCTEPITIAYASAIARECLGAFPDVIQIKASGNIIKNVKSVVVPGTNGMKGIEAAVAAGLVGGKSEKKLEVISEVTEEEKEQIRDLVEKEIIEVGIAGSDLLLDVQVQLKKGDDSVFVRIANAHTNVVLVEKNGVRLFEKAMDCGGDDAGLSQEKKLLSVEGILEFADQVKLEDIEDVISRQIAYNTAIADEGLAHNYGANIGKVLLQAYGDQDVRVRAKARAAAGSDARMSGCELPVIINSGSGNQGITASVPVIEYAKELKCGEEKMYRALVLSNLIAIHQKTGIGPLSAYCGAVSAGCASGAAIAYLNGGDLRTISHTIVNCLAIASGIVCDGAKASCAAKIGMSVEAGLLGYLMIEQDQQFRAGDGIVKKGVEETIRSVGRLGKDGMRETDREILEIMIGK
- soluble on expression in E. coli: not soluble

Sequence: MKLEDLPKYYSPKSPGLTDASASTSKDALSITDVMAAQGMTQNRAEMGFSAFLGKMGISMNDRARATELLADYALSRCDRVAALRKLPAEIKPVVMRIMASYAFEDYARSAASKKQCPCCYGEKFIESVVFTNKVQYPDGKPPVWAKCTKGVYPSYWEEWKKVREVVKVACPECGGKGEVSTACKDCRGRGVAIHREESVKRGMPVIRDCQRCGGRGYERLPSTEVFNAICEVTNQITRASWEKTVKKFYDALVTRFDIEEAWAERQLKKVTR
- soluble on expression in E. coli: not soluble

Sequence: MSNEGSREESREPEAREGKSDEIFEVEKILAHKVTDNLLVLQVRWLGYGADEDTWEPEEDLQECASEVVAEYYKKLKVTDKTELIELLQKQIKKNKSQKSKKRSKTVSDHESNHDSDGSYGTPKTSKKSKKSAKNETPVSSKVPKVPTKAALKSYEATVSGPVAPNNAKKAAMEVRDTRRNWLDEESSDDEAETTAPLSDVEKIASKVKVVKAVEEKAEEPVKRPSTPPKPREVVIKKDPSESPVASASSVIPTSKRKSINAETSNGRQRTLAPPVIVKDETTWTVDGIARHTDVDNTKTKLILMTNSATGERKVVEGREAFELDGWALAKYLLDRCEF
- soluble on expression in E. coli: soluble

Sequence: QSQGVLSSFPAPQAVQDNPAMPTSSGSEGNVKLCSLEEAQRIWKQKSAEIYPIMDKSSRTRLALIICNEEFDSIPRRTGAEVDITGMTMLLQNLGYSVDVKKNLTASDMTTELEAFAHRPEHKTSDSTFLVFMSHGIREGICGKKHSEQVPDILQLNAIFNMLNTKNCPSLKDKPKVIIIQAARGDSPGVVWFKDSVGVSGNLSLPTTEEFEDDAIKKAHIEKDFIAFCSSTPDNVSWRHPTMGSVFIGRLIEHMQEYACSCDVEEIFRKVRFSFEQPDGRAQMPTTERVTLTRCFYLFPGH
- soluble on expression in E. coli: soluble

Sequence: MFGLKVKNAEADTAKSNEKLQGAEATGSSTTSGSGQSTQRGGSSGDTKVKALQVAVKKKSGSQGNSGDQGTEQVELESNDLANAPIKRGSNPASPTQGSRLRHHPIQFGIWSIRHPHPLKAVACDRANSQGPPQMIRLDPHSVRCALCL
- soluble on expression in E. coli: soluble

Sequence: MGSDKIHHHHHHMVRPRIKLTEHLSTEEIEQSYRRCEDAQEKTRWLVIKLLNQQPQLSAQKVAEIVGFSGDWVRKIVRRYNKLGANGIINQQKLKPGGKKLALTNEQQQWLRQRLASPPEDGGLWSAPKVGELIRVQFGITLHVTTAWDYLKRLGFSLQQPRPLHTEAATFVQRQMFKTELTEFVRLLRFLHPHKSVEVWAEDEARLGLKPIVRRVWTPVGHRPNAVHRTRYQWLYTYGFVHPATGESFFLILPRVNIAVMQMALDAFAAEVNPHHHKIIVLLVDQAGWHTSKQLMLPAGIILFPLPAYTPQLQPTECVWSLLREAVANQMFSTLDELETVLISRCQWLMSHPQIVHGKVGFDWICQI
- soluble on expression in E. coli: not soluble

Sequence: MSNDRPLIFVDLDDTLFQTARKTPADIEKHVATLDISGNANGYMTNVQKSFAHWLLAHADVVPVTARSVEAYSRVKLPFTAGAICSHGGVMLDVMGRLDPDWNEQMKQTLASYQSRLHELSAATLAIGQEMGFSLRGWVVEEAQLFHYVVTKHNESDDSILTKVLAEMQARGLLDGMHIHGNGNNLAFLPEGLAKRYAVQEWLRRDLAINGERPVLGFGDSITDLGFMDECHWWATPARSQLAKMFVGAAHE
- soluble on expression in E. coli: not soluble

Sequence: MATRNEEILRKPDWLKIKLNTNDNYTGLKKMMREKNLHTVCEEAKCPNIHECWGARRTATFMILGAVCTRACRFCAVKTGLPNELDLNEPERVAESVELMNLKHVVITAVARDDLRDQGSNVYAETVRKVRERNPFTTIEILPSDMGGDYEALETLMASRPDILNHNIETVRRLTPRVRARATYDRTLQFLRRSKELQPDIPTKSSLMVGLGETMEEIYETMDDLRANDVDILTIGQYLQPSRKHLKVEKYYTPLEFGKMRKIAMEKGFKHCQAGPLVRSSYHADEQVNEAAKEKQRQGEEQLN
- soluble on expression in E. coli: not soluble

Sequence: KKTEWSREEEEKLLHLAKLMPTQWRTIAPIIGRTAAQCLEHYEFLLDKAAQRD
- soluble on expression in E. coli: soluble

Sequence: MMVDTGVDHRAVSSHDGPDAGRRVFGAADPRFACVVRAFASMFPGRRFGGGALAVYLDGQPVVDVWKGWADRAGWVPWSADSAPMVFSATKGMTATVIHRLADRGLIDYEAPVAEYWPAFGANGKATLTVRDVMRHQAGLSGLRGATQQDLLDHVVMEERLAAAVPGRLLGKSAYHALTFGWLMSGLARAVTGKDMRLLFREELAEPLDTDGLHLGRPPADAPTRVAEIIMPQDIAANAVLTCAMRRLAHRFSGGFRSMYFPGAIAAVQGEAPLLDAEIPAANGVATARALARMYGAIANGGEIDGIRFLSRELVTGLTRNRRQVLPDRNLLVPLNFHLGYHGMPIGNVMPGFGHVGLGGSIGWTDPETGVAFALVHNRLLSPLEHHHHHH
- soluble on expression in E. coli: not soluble

Sequence: MKFTSLLTAGALASTLVSPAIMAADTASASLSDAQKKEIEKVIHDYLINNPEVLLEASQALQQKQQQNMQQQAQAAIQENAEQVFQGKLTTVGNPKGNVTLVEFFDYQCIHCKKMASTIENLVKKDSGLRVIYKEFPIFGKTSDLASRVALAAGMQGKYQAMHNALITIDKRLDEKTVMDAAKSIGLDMQKLKKDMDSQEVTDILDANRQLAEKLHLMGTPAFIIGSTPDGQYKKGSEISFIPGATSEQSLRELIKKAAGN
- soluble on expression in E. coli: not soluble

Sequence: MSSYEMFADKNIVAGELANLMASAGWGTEGDYDATAIEKSLSAYPMIAYCRDSDGLLVGYISAFTDGAFSTFVGELVVRPTYQQRGIGSALLAMIVEKCRGVPVYATPFQGTEKFFLDRGFRVPERPMSVVSMRNVT
- soluble on expression in E. coli: not soluble

Sequence: MGFPIPDPYVWDPSFRTFYSIIDDEHKTLFNGIFHLAIDDNADNLGELRRCTGKHFLNEQVLMQASQYQFYDEHKKEHETFIHALDNWKGDVKWAKSWYVNHIKTIDFKYKGKI
- soluble on expression in E. coli: soluble

Sequence: MTEADDPKKKIRARIERDVYSVLLSFQEGATPNQVERRMDDTLGYTYVGKYVQAGVRDMAQLLREHKDVRQNLSGVFSVVANEDNQDLINLISKQKKKKKGGKGAKPIRAATSMGFHNKSGFGYAAHLRSPKPSFMYPASSARANPAKPQATGYRNTVRHPPVRPSTATGHSSFANRSAYSHHTTRSTTVGPVKIAPSATAQRPLLRQPVTVVQRLSSTVAVPVLQPGIDSKCMPSIVDFSNNVKRMMLLEYPADVHLSELTEIYDKHFDVSIDPLQLFSKSWMMFVKTSFKEWLQLGTDGRVEVKEPWFTNFGAALKKSMPPAPEKKKPTTLHEPTSSVASSSLPISQGFRYQIPVVRPIVSVAESMKGLTVSARSVMGTPKDLPGVSNPIKNTARGSNKPRNDLASSKASKDLVVPVMKTTCIKSLEDTSTSSSNPSTLQLSTASTSATDQKLPKMSFGRQIEKGSSIPGRHISLALTEIKNQKVIAASIVGKSAKTSTKVPSTTRSVVLPPMSKGPGLARSRNFSPQQSTTSSIDNECLEAINAALPSDKDSW
- soluble on expression in E. coli: soluble

Sequence: MMRPTVFSSKAVISSSSLSASLAGAKIIEKGGNIFDAAIAVSSVLSVTQNNLCGLGGDAFALVRYNGRVKGYNGSGKSSRNVNRGLYFELGYSRIPERGIYSAITVPGLVDLWNSLYLEYATMRFSDLISDAIKYAETGFYITRHYEESLIASSPILGQYNWSNQFMPYGKIPAEGDLFIQKDLAGTLREIAEEGPRSFYDGYLSDIIFKAMEKTNLLIDSKDLSDHKTLAANPVKSTYMDYDVFETAPNSQGATVNYWLALLEQKIQNKIPRPVDIVESGLEAYRWRSMFIGDPERMPFNGDLLSKGAGPYYNNPRVPEDKGDTTYFSISDANGNSISMIQSNYMGFGSGIIPEGTGFVLQNRGSYFTLDDKHHNSLEPRKRTFHTLAACIIEKDGELVYSLGTMGGDIQPQVQVQIITGLINQDLMPQEAIERPRWAFPATIYEQPSVLNVEDTSLINENETRLRINPMKYSSSFGTAQVTALLNGRVAGGSDPRGDGFSIPVMAGDPLEHHHHHH
- soluble on expression in E. coli: not soluble

Sequence: VTDDLEPTAPAAAAPEPEVKGIDLARRALEEARAAAKASGKSVGQGRRSGTGVRALRARRRRGWSGPGPDDRDPQPFGALTNAIAKQRGWSPKVSEGTVLGRWVQVVGEDIAAHAEPTGLRDGILSVSAESTAWATQLRMMQSQILAKIAAAVGDGVVKSLRITGPTAPSWRKGERHIRGRGPRDTYG
- soluble on expression in E. coli: not soluble

Sequence: MEDKRLIREKILRNLNSIDKVEHRERSIKLAEKLFLLPEWENAKVVGITLARHPEIETEAIILQAKKEGKTILIPKTYYPSRKMEFKKMDSIHPLIKSKFGILEPNELAETVDKKVIDLLIVPGVAFNKDHYRIGFGGGFYDRFLTDFQGHTVSLYLYEQQIEFTPETHDEPVSILIGGLEHHHHHH
- soluble on expression in E. coli: not soluble

Sequence: MAELTETSPETPETTEAIRAVEAFLNALQNEDFDTVDAALGDDLVYENVGFSRIRGGRRTATLLRRMQGRVGFEVKIHRIGADGAAVLTERTDALIIGPLRVQFWVCGVFEVDDGRITLWRDYFDVYDMFKGLLRGLVALVVPSLKATL
- soluble on expression in E. coli: soluble

Sequence: RELHPVAPLLDNLTSALNKVYQRKGVNISLDISPEISFVGEQNDFVEVMGNVLDNACKYCLEFVEISARQTDEHLYIVVEDDGPGIPLSKREVIFDRGQRVDTLRPGQGVGLAVAREITEQYEGKIVAGESMLGGARMEVIFGRQHSAPKDE
- soluble on expression in E. coli: soluble

Sequence: MGLTTMGLTTMGLTTKGLTTMGLTTKGLTTKGLTTMGLTTKGFTTKGLTTMGVTTKGLTTMGLTTKGLTTKGLTTKGFTTKGLTTMGLATMGLTTKGLTTMGLTTMGLTTKGLTTKGLTTKGLTTKGLTTKGLTTMGLTTKGFTTKGLTTMGLTTMGLATMGLTTKGLTTMGLTTKGFITKGLTTMGLATMGLTTMGLTTKGLTTKGLTTKGLTTMGLTTKGFITKGLTTMGLATMGLTTMGLTTKGLTTMGLTTMGLTTKGLTTKGLTTKGLTTKGLTTKGLTTMGLTTKGFTTKGLTTMGLATMGLATMGLTTMGLTTKGLTTKGLTTKGLTTKGLTTMGLTTKGFTTKGLTTMGLTTMGLTTKGLTTKGLTTKGLTTKGLTTMGLTTKGFTTKGLTTMGLATMGLTTKGLTTMGLTTKGFITKGLTTMGLATMGLTTMGLTTKGLTTKGLTTKGLTTMGLTTMGLTTMGLTTMGLTTMGLTTMGLTTMGLTTKGLTSQGVMDQAGVNRVEGEPINRLRTCEGKGNGRGDMQGVGNLGKALRGREDSLIVSSETRGFPRMGLWPGFPPIEYQGQVQSLE
- soluble on expression in E. coli: not soluble
